The assay has as its target Human calmodulin (human, UniProt P0DP23 1-149). Description: ITC.

The values below come from paper PMC12118636 (Science Advances, 2025).

By Kd is commonly meant the free concentration of one partner at which half of the binding sites on the other are occupied at equilibrium, for simple one-to-one binding. Low readings indicate a tighter complex, high ones a looser complex.

B1: Human NaV1.9 C-tail (residues 1618 to 1766) (domain or fragment)
chain: LGEDDFDIFYEVWEKFDPEATQFIKYSALSDFADALPEPLRVAKPNKYQFLVMDLPMVSEDRLHCMDILFAFTARVLGGSDGLDSMKAMMEEKFMEANPLKKLYEPIVTTTKRKEEERGAAIIQKAFRKYMMKVTKGDQGDQNDLENGP
B1: the Kd was around 214 µM.
